Assay: soluble on expression in E. coli; label from the status in PepcDB or PDB records

Sequence | soluble on expression in E. coli
MSLKVEYFSDSSAVPHLHLENEDSYSVTDDLFIVADGVGSYEGSKDASRYAVNYLSKMAKEIQSKEQLVEEIIKLSEEIKSIGIISGRPLMSTTISVLKISTEKYITANVGDSPIVLLRSGKLYKLYIDDSERSSTGNRFALEQAFGWNHVIVHSFEGKLEKGDLFIICTDGVSDNLSDEYDLYSILRELDAQTIVRLALNKGIKPDDATIIKVYVTMAEGHHHHHH | soluble
MAHHHHHHMQMEEKQAFFVESVDGRKFKMVIRGDLGKLSVAKIRRYLKSYGVPENQLLLAGNRVLEDAMLGEQFGLENEGVLHLREPTTVQHLAPAAVPSTAQSRTQLQQKPELSYEPQSAWRETRYEPAAHDARQMQREIERLQRQVEAAEARNADLEHQLEQVAESSAPYPPRGGA | not soluble
MIKLIATIIVSTLILGSCSTMKDEIEKVPASQYKGQDFQPLAEKSAIAHAKKYREEYEKLGEQFFKDNFSLNVKATNVVGSGDGAEVYVHCDDHDIVFNASIPFDMESIHEEGSMRSNDNGDTMSMMVGTVLSGFEYRANKEKMDNLEKYLKDKEDKYHYTGFTDEAITKTQNIGYQNNYFYITTSSTKLRDYRKHFEPLIKESDDDFKKHMKQLKSKKDTYINTEITTTLFSTLDEYDEKIIRKNTLSMAKEMRKEPSIPHNFTFHLLFSNNKLKINDPNISNNQINEYRVFDHDGFKNLEHHHHHH | not soluble
GINDLDISPIDPQTGGSFDQQGVFVKGYAMLGVTGQKGIDGSPDLDGQDEGESGFYRTTFNCNELPTDECLWAWQKNQDIPQLTSISWSPSSQRTEWVYVRLGYDITQYNFFLDQTEGMTDAETLRQRAEIRFLRALHYWYFLDLFGKAPFKEHFSNDLPVEKKGTELYTYIQNELNEIEADMYEPRQAPFGRADKAANWLLRARLYLNAGVYTGQTDYAKAEEYASKVIGSAYKLCTNYSELFMADNDENENAMQEIILPIRQDGVKTRNYGGSTYLVCGTRVAGMPRMGTTNGWSCIFARAAMVQKFFSNLEDVPMLPADVEIPTKGLDTDEQIDAFDAEHGIRTEDMIKAAGDDRALLYSGVGGGRRKIQTDAISGFTDGLSIVKWQNYRSDGKPVSHATYPDTDIPLFRLAEAYLTRAEAIFRQGGDATGDINELRKRANCTRKVQTVTEQELIDEWAREFYLEGRRRSDLVRFGMFTTNKYLWDWKGGAMNGTSVASYYNKYPIPVSDINNNRNMSQNEGYK | soluble
MGSDKIHHHHHHMPEKKIDGRRKAAVLLVALGPEKAAQVMKHLDEETVEQLVVEIANIGRVTPEEKKQVLEEFLSLAKAKEMISEGGIEYAKKVLEKAFGPERARKIIERLTSSLQVKPFSFVRDTDPVQLVNFLQSEHPQTIAVVLSYLDPPVAAQILGALPEELQTEVLKRIALLERTSPEVVKEIERNLEKKISGFVSRTFSKVGGIDTAAEIMNNLDRTTEKKIMDKLVQENPELADEIRRRMFVFEDILKLDDRSIQLVLREVDTRDLALALKGASDELKEKIFKNMSKRAAALLKDELEYMGPVRLKDVEEAQQKIINIIRRLEEAGEIVIARGGGEELIM | not soluble
SMSGMKSSKSKDVLSAAEVMQWSQSLEKLLANQTGQNVFGSFLKSEFSEENIEFWLACEDYKKTESDLLPCKAEEIYKAFVHSDAAKQINIDFRTRESTAKKIKAPTPTCFDEAQKVIYTLMEKDSYPRFLKSDIYLNLLNDLQA | soluble
MGSDKIHHHHHHMRDQADRLREMALNLKQEIEAEIRRDLRYSRVVVISSGKGGVGKSTLALNLSLNLCARGMKIILMDADMGLANLDVMLGLVTKFNIYHIVQQKKSMEEITISGPEGLKIIPGGSGISELANLENTELKRILVELRKLDGAYDYMIIDTGAGISKSVMNFLLAAEDIIVITTPEPTAITDAYSLVKNVAKNSFAGSIYLVVNKVANDSEGILVAEKFKLVCQKFLSCEIKPLGHIVNEPLIGEGIRRQKAFVQIYPRSTATRNINTIVDRLIEASGQKSPGLESKRGGIRYFIEKIAGLVK | not soluble
MSLNTEIEMNELLEKAKKIKCLICDVDGVLSDGLLHIDNHGNELKSFHVQDGMGLKLLMAAGIQVAIITTAQNAVVDHRMEQLGITHYYKGQVDKRSAYQHLKKTLGLNDDEFAYIGDDLPDLPLIQQVGLGVAVSNAVPQVLEFADWRTERTGGRGAVRELCDLILNAQNKAELAITGYLKQEGHHHHHH | soluble
SLCHVTRPDAVVMEIEVDAKANGEDCLNKVCRKLGIIEVDYFGLQFSGSKGENLWLNLRNRISQQMDNLTPCRLRLRVKFFVEPHLILQEQTRHLFFMHVKEDLHRGHLRMCSEQAQELSALLAQAEFGDYNQNTAKYWYTELCGSEPNQTTINSIIAKHKALEGLSQASVEYQALQLVSSLEHYGVEWHWARDAEAQRLAIGVGPEGIAICRDDFSLVNRISYPIIQIATQSGKSVYLTVTKESSDSVVLLFKLISN | soluble
MTLIEPDMNLRMPDISTTVETLNLISKMEAQKENIRSVIAPEHKHKYKDIENGLKGEEKVLIEQMAQHCEAFKANFKGAAQGDWVKSAMSEIDSIKDDLKKINSLEHHHHHH | not soluble
LIFTCDKNKLQESIAIAQKAITGKSTMPILEGLYIEASENIVTIIGSDKDVSIETKFEADVTEPGKLVVDAKIFGEIIRKLPNDKIKIETVSEEAIRITCQKSVFDLLHMNAEDFPSLPKINENMIFSINQGILKNMIKGTSFAIAQDETRPILQGILFEIKDSKLNLVALDGYRLAIRTENIDTNNTINAVIPGKTLNEVAKILEDSEEIVNITFTPNHILFNMGDTKVISRLLEGEFIKYDALLPKEHKLQIEVDKQTLQNGIERASLMAKEGNSNLVKFDITDENIVITSNSQLGKVREEVTIKLQGDEIQIAFNSKYLLDVLKNMEEDKIELRMTSSISPCIIRNKNNDLCEYLVLPVRIAR | soluble
MFQLSVQDIHPGEKAGDKEEAIRQVAAALVQAGNVAEGYVNGMLAREQQTSTFLGNGIAIPHGTTDTRDQVLKTGVQVFQFPEGVTWGDGQVAYVAIGIAASSDEHLGLLRQLTHVLSDDSVAEQLKSATTAEELRALLMGEKQSEQLKLDNEMLTLDIVASDLLTLQALNAARLKEAGAVDATFVTKAINEQPLNLGQGIWLSDSAEGNLRSAIAVSRAANAFDVDGETAAMLVSVAMNDDQPIAVLKRLADLLLDNKADRLLKADAATLLALLTSDDAPTDDVLSAEFVVRNEHGLHARPGTMLVNTIKQFNSDITVTNLDGTGKPANGRSLMKVVALGVKKGHRLRFTAQGADAEQALKAIGDAIAAGLGEGA | soluble
VINARLGKKDEINVCKLKISAWDEEEAVCIMSISEERMFILKMLEEGKITSEEAARLLEAIDPDKGTADSGSGFKAQQRKTNFADEVSKVRDKLNEWKKEFKKNYNQKDFERAVDEFSSKVEKLGKNLAYTTIGVADKLVDFISSFVETNSFNVFGKYKATNRVFEVPDVNEDMELNIEAINGHILVKKHMENKVIIRTTVKSPADNADEILDFSREENKVTLKCNKIGNISVSHEIFLPSVKVKNISLVTKNGKVYVEDSISENFEAVTSNSNVDLMGVNGDKINVSNKNGRINFGYIIGKDINIDAVNSVIEIRQIKTTNINASTRNGRIFIENVHNHNDDPNINMNLKTSSADIKVNMNDMEKRGYKIKAQTTHAEINLLIPEMTYRNISKQMSSNFVEADSDGYDDYINKVNIVAETTNGNIEIVK | not soluble
MGFKCGIVGLPNVGKSTLFNALTKAGIEAANYPFCTIEPNTGVVPMPDPRLDALAEIVKPERILPTTMEFVDIAGLVAGASKGEGLGNKFLANIRETDAIGHVVRCFENDDIVHVAGKIDPLDDIDTINTELALADLDSCERAIQRLQKRAKGGDKEAKFELSVMEKILPVLENAGMIRSVGLDKEELQAIKSYNFLTLKPTMYIANVNEDGFENNPYLDRVREIAAKEGAVVVPVCAAIESEIAELDDEEKVEFLQDLGIEEPGLNRVIRAGYALLNLQTYFTAGVKEVRAWTVSVGATAPKAAAVIHTDFEKGFIRAEVIAYEDFIQFNGENGAKEAGKWRLEGKDYIVQDGDVMHFRFNV | soluble
SNAMTLTALNAISPIDGRYVNKTRALSPYFSEFALTYYRLMVEIKWFESLAANDTIPEVPALDNKARKFLSDLISNFNESEAEKIKEFEKQTNHDVKAVEYYLQDKFQENEQLKSCVAFIHFACTSEDINNLAYALMIKQAIAQVIQPTIAEIMGSITLLGKQHADVAMLSRTHGQPATPTTMGKELVNFVARLKRPQQQLAEVLIPAKFNGAVGNYNAHVAAYPEVDWRKHCANFVTSLGLSFNAYTTQIEPHDGIAEVSQIMVRINNILLDYTQDIWSYISLGYFKQKTIAEEVGSSTMPHKVNPIDFENAEGNLGLSNALFIHFANKLTQSRMQRDLSDSTVLRNLGVAFSYSLIAYHSVAKGNDKLQINKSALQKDLSENWEVLAEAIQTVMRRYNEPNAYEQLKELTRGQMIDAENLKKFIKTLSIPEEAKAELMKLTPETYTGLATQLVKAFS | soluble
MSTSEDKPEIISRVVHQEGDVEIVDRSQKDKDEEKEEGKGGFLDKVKDFIHDIGEKLEGTIGFGKPTADVSAIHIPKINLERADIVVDVLVKNPNPVPIPLIDVNYLVESDGRKLVSGLIPDAGTLKAHGEETVKIPLTLIYDDIKSTYNDINPGMIIPYRIKVDLIVDVPVLGRLTLPLEKCGEIPIPKKPDVDIEKIKFQKFSLEETVAILHVRLQNMNDFDLGLNDLDCEVWLCDVSIGKAEIADSIKLDKNGSGLINVPMTFRPKDFGSALWDMIRGKGTGYTIKGNIDVDTPFGAMKLPIIKEGGETRLKKEDDDDDDEE | soluble
MQLKVPEHQVAGHIAKDGKPGPLVDDKGRFFKPLQGDSRGEIEVKFYESFSSNTEVPEHIHRYFPVYHGTQAVEGSDGAAMMVLENLLAEYTKPSVMDVKMGSRTWYPDASEEYIQKCLKKDTGTTTVSSGFRISGFEVYDHKESSFWKPERKLLRGLDVDGARLTLRKFVSSNSLSDTGSKPDSAFASSVYGGSHGILTQLLELKTWFENQTLYHFNSCSILMVYENESILKGNDDDARPQVKLVDFAHVLDGNGVIDHNFLGGLCSFINFIREILQSPDESADS | soluble
NPHMWWLQDADPENNSRQASPSQESINQLVYMGFDTVVAEAALRVFGGNVQLAAQTLAHHGGSLPPDLQF | soluble
MGSDKIHHHHHHMWEIDQVRQGIVKNQIPSVNLWYGEERFFIQEALQLLKNSYLAQDPSGSGIEILSGKSTGPEQIVEIANTVSFFGGKLIIVEDIPYFQDGQGDALEPFFAYFENPNPGTCLVFLAQSVNRGRKFFKAIEKKGSILEFVSPKRQQEWSAWLDRELAARGKTMKPQVKALFLEWGGHQVGALSQELDKLALFVEGKEIRTEDVRSLVPQAVEATVFELLDAVAARSSKEAVQKLQQVLRQEHSLKVLTLLSRQVRLLLGARAMRQQGRGAEEAPRLLGIKPYEAQKIWQKAAQLTWEQLSWALRECLETDVAIKTGKGEPEFLLELMVVKFCEM | not soluble
MKLTGQAIDGFLRKPDPKIRCVLVYGPDEGLVRERLEQLARTVVADPKDPFRITDLSGDDLRADPARLADEAAALAFGGGRRLVRLRQMTDQHAPRLKAFVEAPVGEALVLVQGGDLTARSALRKLFEGASAAAALPCYADEGRSLETLVRATLAEARLAAAPEVIDYLVANLGGDRGVSRSELAKLVTYCGKATSVSLDDALACVGDSAQIGLDMLTNAVAEGDSATALRALDRLGQEGMATVALLRGLTRHFTRLHLVAGLIAGGTSVDQALAALKPPVMFKLAPRFRSQVQRWSAERLAQALDLLLDAEIDAKSSGLPERALVERLLLRLARGAKTASRLEHHHHHH | not soluble

From the DeepSol protein solubility set
